Laboratory results taken from PMC11857385, “Parametric Cyclic Voltammetric Analysis of an Electrochemical Aptasensor for Staphylococcus aureus Iron-Regulated Surface Determinant Protein A Detection”.

Molecular target: T1, IsdA (iron-regulated surface determinant protein A) (Staphylococcus aureus, UniProt A6QG31 47-316)
T1 sequence: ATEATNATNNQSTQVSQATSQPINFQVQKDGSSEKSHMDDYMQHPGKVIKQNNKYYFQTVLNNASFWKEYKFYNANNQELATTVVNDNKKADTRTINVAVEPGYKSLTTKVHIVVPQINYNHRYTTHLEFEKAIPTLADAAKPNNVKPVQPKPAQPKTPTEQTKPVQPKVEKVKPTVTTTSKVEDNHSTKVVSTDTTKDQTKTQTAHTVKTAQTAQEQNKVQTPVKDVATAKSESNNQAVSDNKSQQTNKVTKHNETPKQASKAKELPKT
Test: cyclic voltammetry and EIS; pH 7.5, 25 °C, 5 mM [Fe(CN)6]3-/4-, 0.1 M KCl; Aptamer (5 µM, 4 h) immobilized on SPCE/AuNPs, 2-MCE block; CV in 5 mM [Fe(CN)6]3-/4-, 0.1 M KCl, pH 7.5 (also 4.5, 10.5), 25 °C (also 4, 37 °C); zeta potential in water, room temperature
Conditions: label: FAM dye applied in imaging; 1 strand

GCGCACGCGUGUGUAGUACACACGAUCGCGCGCACAAUAU (ssRNA, amine for coupling to AuNP carboxyl groups implied; position not stated) [anti-IsdA aptamer]
binding result: binds
